Tested on: Escherichia coli TOP10
Test: shrunken log2 fold change of peptide-encoding DNA abundance (4.5 h post-induction vs induction); higher = less antimicrobial activity (less host growth inhibition)
Details: time post-induction: 4.5 h; library: site-saturation at positions 5, 18, 19, 20
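Note: peptides expressed intracellularly from a pBAD plasmid library in pooled LB shake-flask culture, induced with 0.3% L-arabinose, DNA abundance read by NGS, three biological replicates, DESeq2 with apeglm shrinkage.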

For RRIRSRPPRLPRPRPRPDMHPRP, the “shrunken log2 fold change” value was -0.118.

For RRIRSRPPRLPRPRPRPDMKPRP, the “shrunken log2 fold change” value was -0.43.

With RRIRSRPPRLPRPRPRPDMLPRP the “shrunken log2 fold change” value was 0.304.

With RRIRSRPPRLPRPRPRPDMPPRP the “shrunken log2 fold change” value was -0.0754.

RRIRSRPPRLPRPRPRPDMTPRP was tested, and the “shrunken log2 fold change” value was 0.154.

For RRIRSRPPRLPRPRPRPDPIPRP, the “shrunken log2 fold change” value was -0.0376.

For RRIRSRPPRLPRPRPRPDPLPRP, the “shrunken log2 fold change” value was 0.0174.

In the case of RRIRSRPPRLPRPRPRPDPQPRP, the “shrunken log2 fold change” value is reported as 0.282.

For RRIRSRPPRLPRPRPRPDQCPRP, the “shrunken log2 fold change” value was -0.209.

In the case of RRIRSRPPRLPRPRPRPDRRPRP, the “shrunken log2 fold change” value is reported as -0.0434.

RRIRSRPPRLPRPRPRPDSLPRP was tested, and the “shrunken log2 fold change” value was 0.00187.

With RRIRSRPPRLPRPRPRPDTPPRP the “shrunken log2 fold change” value was -0.0107.

In the case of RRIRSRPPRLPRPRPRPDTQPRP, the “shrunken log2 fold change” value is reported as -0.00981.

For RRIRSRPPRLPRPRPRPDTSPRP, the “shrunken log2 fold change” value was -0.0998.

With RRIRSRPPRLPRPRPRPDVLPRP the “shrunken log2 fold change” value was -0.104.

RRIRSRPPRLPRPRPRPDWIPRP was tested, and the “shrunken log2 fold change” value was -0.337.

With RRIRSRPPRLPRPRPRPEADPRP the “shrunken log2 fold change” value was 0.688.

With RRIRSRPPRLPRPRPRPEAQPRP the “shrunken log2 fold change” value was 0.438.

For RRIRSRPPRLPRPRPRPEDTPRP, the “shrunken log2 fold change” value was -0.00541.

For RRIRSRPPRLPRPRPRPEEKPRP, the “shrunken log2 fold change” value was 0.206.

For RRIRSRPPRLPRPRPRPEHPPRP, the “shrunken log2 fold change” value was 0.166.

RRIRSRPPRLPRPRPRPEIAPRP was tested, and the “shrunken log2 fold change” value was 0.00181.

For RRIRSRPPRLPRPRPRPEIQPRP, the “shrunken log2 fold change” value was 0.00278.

For RRIRSRPPRLPRPRPRPELVPRP, the “shrunken log2 fold change” value was 0.111.

With RRIRSRPPRLPRPRPRPELWPRP the “shrunken log2 fold change” value was 0.743.

RRIRSRPPRLPRPRPRPEMHPRP was tested, and the “shrunken log2 fold change” value was 0.0756.

In the case of RRIRSRPPRLPRPRPRPEMWPRP, the “shrunken log2 fold change” value is reported as 0.67.

For RRIRSRPPRLPRPRPRPENKPRP, the “shrunken log2 fold change” value was -0.125.

For RRIRSRPPRLPRPRPRPEPYPRP, the “shrunken log2 fold change” value was 0.0691.

With RRIRSRPPRLPRPRPRPERDPRP the “shrunken log2 fold change” value was 0.138.

With RRIRSRPPRLPRPRPRPETMPRP the “shrunken log2 fold change” value was 0.205.

RRIRSRPPRLPRPRPRPETQPRP was tested, and the “shrunken log2 fold change” value was 0.29.

In the case of RRIRSRPPRLPRPRPRPEVGPRP, the “shrunken log2 fold change” value is reported as 0.726.

In the case of RRIRSRPPRLPRPRPRPEVIPRP, the “shrunken log2 fold change” value is reported as 0.18.

In the case of RRIRSRPPRLPRPRPRPEYLPRP, the “shrunken log2 fold change” value is reported as -0.0519.

For RRIRSRPPRLPRPRPRPEYQPRP, the “shrunken log2 fold change” value was 0.0227.

RRIRSRPPRLPRPRPRPEYTPRP was tested, and the “shrunken log2 fold change” value was -0.0105.

For RRIRSRPPRLPRPRPRPFCEPRP, the “shrunken log2 fold change” value was -0.0573.

In the case of RRIRSRPPRLPRPRPRPFCQPRP, the “shrunken log2 fold change” value is reported as -0.0847.

RRIRSRPPRLPRPRPRPFEAPRP was tested, and the “shrunken log2 fold change” value was 0.14.

For RRIRSRPPRLPRPRPRPFEFPRP, the “shrunken log2 fold change” value was -0.42.

With RRIRSRPPRLPRPRPRPFEVPRP the “shrunken log2 fold change” value was -0.109.

RRIRSRPPRLPRPRPRPFFYPRP was tested, and the “shrunken log2 fold change” value was -0.17.

With RRIRSRPPRLPRPRPRPFGCPRP the “shrunken log2 fold change” value was 0.029.

In the case of RRIRSRPPRLPRPRPRPFGDPRP, the “shrunken log2 fold change” value is reported as -0.0872.

In the case of RRIRSRPPRLPRPRPRPFGWPRP, the “shrunken log2 fold change” value is reported as 0.0625.

In the case of RRIRSRPPRLPRPRPRPFHIPRP, the “shrunken log2 fold change” value is reported as -1.07.

RRIRSRPPRLPRPRPRPFIAPRP was tested, and the “shrunken log2 fold change” value was -0.275.

For RRIRSRPPRLPRPRPRPFIDPRP, the “shrunken log2 fold change” value was -0.0941.

For RRIRSRPPRLPRPRPRPFLAPRP, the “shrunken log2 fold change” value was -0.311.

With RRIRSRPPRLPRPRPRPFLPPRP the “shrunken log2 fold change” value was -0.305.

RRIRSRPPRLPRPRPRPFLSPRP was tested, and the “shrunken log2 fold change” value was -0.063.

In the case of RRIRSRPPRLPRPRPRPFLTPRP, the “shrunken log2 fold change” value is reported as -0.437.

RRIRSRPPRLPRPRPRPFPQPRP was tested, and the “shrunken log2 fold change” value was -0.201.

For RRIRSRPPRLPRPRPRPFQFPRP, the “shrunken log2 fold change” value was -0.157.

In the case of RRIRSRPPRLPRPRPRPFRAPRP, the “shrunken log2 fold change” value is reported as -0.0568.

With RRIRSRPPRLPRPRPRPFRIPRP the “shrunken log2 fold change” value was 0.0361.

RRIRSRPPRLPRPRPRPFSRPRP was tested, and the “shrunken log2 fold change” value was -0.347.

With RRIRSRPPRLPRPRPRPFTTPRP the “shrunken log2 fold change” value was -0.392.

RRIRSRPPRLPRPRPRPFWLPRP was tested, and the “shrunken log2 fold change” value was 0.26.

With RRIRSRPPRLPRPRPRPFWSPRP the “shrunken log2 fold change” value was -0.183.

RRIRSRPPRLPRPRPRPFYPPRP was tested, and the “shrunken log2 fold change” value was -0.259.

For RRIRSRPPRLPRPRPRPGAFPRP, the “shrunken log2 fold change” value was 0.0905.

For RRIRSRPPRLPRPRPRPGATPRP, the “shrunken log2 fold change” value was 0.584.

For RRIRSRPPRLPRPRPRPGAWPRP, the “shrunken log2 fold change” value was 0.342.

RRIRSRPPRLPRPRPRPGCQPRP was tested, and the “shrunken log2 fold change” value was 0.287.

In the case of RRIRSRPPRLPRPRPRPGCYPRP, the “shrunken log2 fold change” value is reported as -0.173.

With RRIRSRPPRLPRPRPRPGDWPRP the “shrunken log2 fold change” value was 0.223.

RRIRSRPPRLPRPRPRPGEAPRP was tested, and the “shrunken log2 fold change” value was 0.287.

For RRIRSRPPRLPRPRPRPGFSPRP, the “shrunken log2 fold change” value was -0.0153.

With RRIRSRPPRLPRPRPRPGGIPRP the “shrunken log2 fold change” value was 0.274.

With RRIRSRPPRLPRPRPRPGGMPRP the “shrunken log2 fold change” value was 0.446.

For RRIRSRPPRLPRPRPRPGGRPRP, the “shrunken log2 fold change” value was 0.284.

With RRIRSRPPRLPRPRPRPGIWPRP the “shrunken log2 fold change” value was 0.123.

In the case of RRIRSRPPRLPRPRPRPGKLPRP, the “shrunken log2 fold change” value is reported as -0.0662.

With RRIRSRPPRLPRPRPRPGKWPRP the “shrunken log2 fold change” value was -0.147.

For RRIRSRPPRLPRPRPRPGLFPRP, the “shrunken log2 fold change” value was 0.163.

RRIRSRPPRLPRPRPRPGLMPRP was tested, and the “shrunken log2 fold change” value was 0.197.

RRIRSRPPRLPRPRPRPGLVPRP was tested, and the “shrunken log2 fold change” value was 0.275.

With RRIRSRPPRLPRPRPRPGMEPRP the “shrunken log2 fold change” value was 0.148.

With RRIRSRPPRLPRPRPRPGMFPRP the “shrunken log2 fold change” value was 0.107.

For RRIRSRPPRLPRPRPRPGMIPRP, the “shrunken log2 fold change” value was -0.296.

With RRIRSRPPRLPRPRPRPGMPPRP the “shrunken log2 fold change” value was -0.122.

With RRIRSRPPRLPRPRPRPGNCPRP the “shrunken log2 fold change” value was -0.0261.

For RRIRSRPPRLPRPRPRPGNDPRP, the “shrunken log2 fold change” value was 0.111.

For RRIRSRPPRLPRPRPRPGPVPRP, the “shrunken log2 fold change” value was 0.384.

In the case of RRIRSRPPRLPRPRPRPGQMPRP, the “shrunken log2 fold change” value is reported as 0.206.

In the case of RRIRSRPPRLPRPRPRPGQNPRP, the “shrunken log2 fold change” value is reported as 0.323.

In the case of RRIRSRPPRLPRPRPRPGQQPRP, the “shrunken log2 fold change” value is reported as 0.0543.

With RRIRSRPPRLPRPRPRPGRQPRP the “shrunken log2 fold change” value was -0.00462.

With RRIRSRPPRLPRPRPRPGSCPRP the “shrunken log2 fold change” value was 0.0634.

With RRIRSRPPRLPRPRPRPGSIPRP the “shrunken log2 fold change” value was -0.0732.

RRIRSRPPRLPRPRPRPGSLPRP was tested, and the “shrunken log2 fold change” value was -0.0216.

With RRIRSRPPRLPRPRPRPGTTPRP the “shrunken log2 fold change” value was 0.132.

RRIRSRPPRLPRPRPRPGWFPRP was tested, and the “shrunken log2 fold change” value was 0.44.

With RRIRSRPPRLPRPRPRPGWQPRP the “shrunken log2 fold change” value was -0.339.

With RRIRSRPPRLPRPRPRPHADPRP the “shrunken log2 fold change” value was 0.121.

RRIRSRPPRLPRPRPRPHAEPRP was tested, and the “shrunken log2 fold change” value was 0.156.

With RRIRSRPPRLPRPRPRPHANPRP the “shrunken log2 fold change” value was -0.168.

For RRIRSRPPRLPRPRPRPHCCPRP, the “shrunken log2 fold change” value was 0.022.

With RRIRSRPPRLPRPRPRPHDEPRP the “shrunken log2 fold change” value was 0.0683.

RRIRSRPPRLPRPRPRPHEPPRP was tested, and the “shrunken log2 fold change” value was -0.154.

For RRIRSRPPRLPRPRPRPHGDPRP, the “shrunken log2 fold change” value was 0.043.

RRIRSRPPRLPRPRPRPHGKPRP was tested, and the “shrunken log2 fold change” value was -0.18.

For RRIRSRPPRLPRPRPRPHGWPRP, the “shrunken log2 fold change” value was -0.107.

In the case of RRIRSRPPRLPRPRPRPHHHPRP, the “shrunken log2 fold change” value is reported as -0.736.

For RRIRSRPPRLPRPRPRPHIGPRP, the “shrunken log2 fold change” value was -0.0154.

RRIRSRPPRLPRPRPRPHKFPRP was tested, and the “shrunken log2 fold change” value was 0.00286.

RRIRSRPPRLPRPRPRPHKTPRP was tested, and the “shrunken log2 fold change” value was -0.258.
